The experiment deals with T1, recombinant human Fc(gamma)RI, biotinylated (R&D Systems) (human, UniProt P12314 16-288).
T1 construct: also called rhFc(gamma) receptor I; Fc(gamma) Receptor I
In words: ELISA pH 7.4; insulin-Fc coated, biotinylated rhFc(gamma)RI titrated (Example 51).

T1 sequence (P12314 16-288 limits assumed): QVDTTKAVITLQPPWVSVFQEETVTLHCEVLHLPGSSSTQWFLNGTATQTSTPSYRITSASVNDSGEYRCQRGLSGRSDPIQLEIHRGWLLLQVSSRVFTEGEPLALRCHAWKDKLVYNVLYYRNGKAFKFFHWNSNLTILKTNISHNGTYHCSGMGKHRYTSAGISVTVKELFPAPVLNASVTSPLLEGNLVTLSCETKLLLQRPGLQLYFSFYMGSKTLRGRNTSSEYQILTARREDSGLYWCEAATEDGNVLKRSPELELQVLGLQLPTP

B1: insulin-Fc fusion protein of SEQ ID NO: 29 (Fc fusion)
chain: FVNQHLCGSHLVEALELVCGERGFHYGGGGGGSGGGGGIVEQCCTSTCSLDQLENYCGGGGGQGGGGQGGGGQGGGGGDCPKCPAPEMLGGPSVFIFPPKPKDTLLIARTPEVTCVVVDLDPEDPEVQISWFVDGKQMQTAKTQPREEQFNGTYRVVSVLPIGHQDWLKGKQFTCKVNNKALPSPIERTISKARGQAHQPSVYVLPPSREELSKNTVSLTCLIKDFFPPDIDVEWQSNGQQEPESKYRTTPPQLDEDGSYFLYSKLSVDKSRWQRGDTFICAVMHEALHNHYTQESLSHSPG
B1: the binding result is “binds”.

These data come from patent US20260000752A1 (AKSTON BIOSCIENCES, published 2026).
